In the Immune Epitope Database (IEDB):

Columns and labels:
[1] = target: HLA-B*18:01; assay: IEDB peptide-MHC binding, purified MHC/competitive/radioactivity; filed as Kd, often an IC50 or EC50 that approximates it; ≥ and ≤ were set here for values at or beyond the usual limits of such assays
[2] = target: HLA-B*40:01; assay: as above
[3] = target: HLA-B*40:02; assay: as above
[4] = target: HLA-B*44:02; assay: as above
[5] = target: HLA-B*44:03; assay: as above
[6] = target: HLA-B*45:01; assay: as above
[7] = target: HLA-B*48:01; assay: IEDB peptide-MHC binding, purified MHC/direct/fluorescence; filed as Kd, often an IC50 or EC50 that approximates it; ≥ and ≤ were set here for values at or beyond the usual limits of such assays
[8] = target: HLA-A*01:01; assay: as above
[9] = target: HLA-A*03:01; assay: as above
[10] = target: HLA-A*11:01; assay: as above
[11] = target: HLA-A*29:02; assay: as above
[12] = target: HLA-A*31:01; assay: as above
[13] = target: HLA-B*08:01; assay: as above; conditions: source organism: Mycobacterium tuberculosis variant bovis BCG str. Pasteur 1173P2
[14] = target: HLA-B*15:01; assay: as above
[15] = target: HLA-B*18:01; assay: as above
[16] = target: HLA-B*27:05; assay: as above; conditions: source organism: Mycobacterium tuberculosis variant bovis BCG str. Pasteur 1173P2
[17] = target: HLA-B*40:01; assay: as above
[18] = target: HLA-B*44:02; assay: as above
[19] = target: HLA-B*46:01; assay: as above
[20] = target: HLA-B*57:01; assay: as above
[21] = target: HLA-B*58:01; assay: as above
[22] = target: HLA-A*02:01; assay: as above; conditions: source organism: Yellow fever virus 17D
[23] = target: HLA-A*69:01; assay: as above; conditions: source organism: Yellow fever virus 17D
[24] = source organism: Mammarenavirus lassaense
[25] = source organism: SARS coronavirus Tor2
[26] = source organism: Mycobacterium tuberculosis variant bovis BCG str. Pasteur 1173P2
[27] = source organism: Yellow fever virus 17D

KEAYCQEFFL
Kd [1, 24]: ≥ 30.5 µM
Kd [2, 24]: 10.9 µM
Kd [3, 24]: 0.0153 µM
Kd [4, 24]: 0.52 µM
Kd [5, 24]: 1.18 µM
Kd [6, 24]: 15.6 µM

AESHMDADLA
Kd [1, 25]: ≥ 48 µM
Kd [2, 25]: 0.163 µM
Kd [3, 25]: 0.0631 µM
Kd [4, 25]: 1.33 µM
Kd [5, 25]: 1.12 µM
Kd [6, 25]: 0.00831 µM

LEGSISYSEL
Kd [1, 25]: ≥ 45 µM
Kd [2, 25]: 0.0617 µM
Kd [3, 25]: 0.156 µM
Kd [4, 25]: 5.58 µM
Kd [5, 25]: 1.5 µM
Kd [6, 25]: 2.21 µM

FEYISDAFSL
Kd [1, 25]: 1.8 µM
Kd [2, 25]: 0.00166 µM
Kd [3, 25]: 0.838 µM
Kd [4, 25]: 3.21 µM
Kd [5, 25]: 1.45 µM
Kd [6, 25]: 6.38 µM

KEQLQLLMPL
Kd [1, 25]: 0.184 µM
Kd [2, 25]: 0.157 µM
Kd [3, 25]: 0.00523 µM
Kd [4, 25]: 0.269 µM
Kd [5, 25]: 0.0491 µM
Kd [6, 25]: 0.121 µM

RRFLEPVGK
Kd ([7]; source organism: West Nile virus): ≥ 20 µM

HPTSRRELL
Kd [8, 26]: ≥ 20 µM
Kd [9, 26]: ≥ 20 µM
Kd [10, 26]: ≥ 20 µM
Kd [11, 26]: ≥ 20 µM
Kd [12, 26]: ≥ 20 µM
Kd [13]: 8.77 µM
Kd [14, 26]: ≥ 20 µM
Kd [15, 26]: ≥ 20 µM
Kd [16]: ≥ 20 µM
Kd [17, 26]: ≥ 20 µM
Kd [18, 26]: ≥ 20 µM
Kd [19, 26]: ≥ 20 µM
Kd [7, 26]: ≥ 20 µM
Kd [20, 26]: ≥ 20 µM
Kd [21, 26]: ≥ 20 µM

CRTAFKPVL
Kd [8, 27]: ≥ 20 µM
Kd [22]: ≥ 20 µM
Kd [9, 27]: ≥ 20 µM
Kd [10, 27]: ≥ 20 µM
Kd [11, 27]: ≥ 20 µM
Kd [12, 27]: ≥ 20 µM
Kd [23]: ≥ 20 µM
Kd [14, 27]: ≥ 20 µM
Kd [15, 27]: ≥ 20 µM
Kd [17, 27]: ≥ 20 µM
Kd [18, 27]: ≥ 20 µM
Kd [19, 27]: ≥ 20 µM
Kd [7, 27]: ≥ 20 µM
Kd [20, 27]: ≥ 20 µM
Kd [21, 27]: ≥ 20 µM

FEKAKIEVL
Kd ([7]; source organism: Campylobacter jejuni subsp. jejuni 81-176): ≥ 20 µM

SDRVVFVLWA
Kd [1, 25]: ≥ 26.4 µM
Kd [2, 25]: 14.7 µM
Kd [3, 25]: 16.7 µM
Kd [4, 25]: 0.654 µM
Kd [5, 25]: 0.736 µM
Kd [6, 25]: 1.95 µM

FELCDNPFF
Kd [1, 25]: 0.211 µM
Kd [2, 25]: 0.0351 µM
Kd [3, 25]: 0.0956 µM
Kd [4, 25]: 0.0321 µM
Kd [5, 25]: 0.0582 µM
Kd [6, 25]: 17.7 µM
